Positions count from the first letter of the chain named. Names and notes keep the numbering of the source.
Legend:
Format in all cases: biochemical, B. amyloliquefaciens
[1] = substrate: C[C@H](NC(=O)CCC(=O)O)C(=O)N[C@@H](C)C(=O)N1CCC[C@H]1C(=O)N[C@@H](CCCCN)C(=O)Nc1ccc([N+](=O)[O-])cc1; assay: Kinetics of p-nitroanilide substrate hydrolysis, S156/K166; details: other: Table XIV, 156 Ser / 166 Lys; value in parentheses; synthetic substrate with label as P-1 amino acid
Excerpt: (§1) Wild-type subtilisin was purified from B. subtilis culture supernatants expressing the B. amyloliquefaciens subtilisin gene (Wells, J.A., et al. (1983) Nucleic Acids Res. 11, 7911-7925) as previously described (Estell, D.A., et al. (1985) J. Biol. Chem. 260, 6518-6521). Details of the synthesis of tetrapeptide substrates having the form succinyl-L-AlaL-AlaL-ProL-[X]-p-nitroanilide (where X is the P1 amino acid) are described by DelMar, E.G., et al. (1979) Anal. Biochem. 99, 316-320. Kinetic parameters, Km(M) and kcat-(s-^1) were measured using a modified progress curve analysis (Estell, D.A., et al. (1985) J. Biol. Chem. 260, 6518-6521). Briefly, plots of rate versus product concentration were fit to the differential form of the rate equation using a non-linear regression algorithm. Errors in kcat and Km for all values reported are less than five percent. The various substrates in Table VIII are ranged in order of decreasing hydrophobicity. Nozaki, Y. (1971), J. Biol. Chem. 246, 2211-2217; Tanford C. (1978) Science 200, 1012).
(§2) The multiple mutants were produced by combining fragments 1, 2 and 3 as described in Example 8. The mutants Q156/K166 and S156/K166 were selectively generated by differential phosphorylation as described. Alternatively, the double 156/166 mutants, c.f. Q156/K166 and S156/K166, were prepared by ligation of the 4.6kb Sacl-BamHI fragment from the relevant p156 plasmid containing the 0.6kb Sacl-BamHI fragment from the relevant p166 plasmid.
(§3) These mutants, the single mutant K166, and the S156 and Q156 mutants of Example 8 were analyzed for substitute specificity against synthetic polypeptides containing Phe or Glu as the P-1 substrate residue.
(§4) To isolate the contribution of electrostatics to substrate specificity from other chemical binding forces, these various single and double mutants were analyzed for their ability to bind and cleave synthetic substrates containing Glu, Gln, Met and Lys as the P-1 substrate amino acid. This permitted comparisons between side-chains that were more sterically similar but differed in charge (e.g., Glu versus Gln, Lys versus Met). Similarly, mutant enzymes were assayed against homologous P-1 substrates that were most sterically similar but differed in charge (Table XIV).

[2] = substrate: C[C@H](NC(=O)CCC(=O)O)C(=O)N[C@@H](C)C(=O)N1CCC[C@H]1C(=O)N[C@@H](Cc1ccccc1)C(=O)Nc1ccc([N+](=O)[O-])cc1; assay: as above; details: other: Table XIII, S156/K166; synthetic substrate with label as P-1 residue
Excerpt: as §1, §2, §3, §4

[3] = substrate: C[C@H](NC(=O)CCC(=O)O)C(=O)N[C@@H](C)C(=O)N1CCC[C@H]1C(=O)N[C@@H](CCC(=O)O)C(=O)Nc1ccc([N+](=O)[O-])cc1; assay: as above
Excerpt: as §1, §2, §3, §4

[4] = substrate: CSCC[C@H](NC(=O)[C@@H]1CCCN1C(=O)[C@H](C)NC(=O)[C@H](C)NC(=O)CCC(=O)O)C(=O)Nc1ccc([N+](=O)[O-])cc1; assay: as above; details: other: Table XIV, 156 Ser / 166 Lys; value in parentheses; synthetic substrate with label as P-1 amino acid
Excerpt: as §1, §2, §3, §4

[5] = substrate: C[C@H](NC(=O)CCC(=O)O)C(=O)N[C@@H](C)C(=O)N1CCC[C@H]1C(=O)N[C@@H](CCC(N)=O)C(=O)Nc1ccc([N+](=O)[O-])cc1; assay: as above; details: other: Table XIV, 156 Ser / 166 Lys; value in parentheses; synthetic substrate with label as P-1 amino acid
Excerpt: as §1, §2, §3, §4

[6] = substrate: C[C@H](NC(=O)CCC(=O)O)C(=O)N[C@@H](C)C(=O)N1CCC[C@H]1C(=O)N[C@@H](CCCCN)C(=O)Nc1ccc([N+](=O)[O-])cc1; assay: Kinetics of p-nitroanilide substrate hydrolysis, Q166; details: other: Table XIV, 156 Glu / 166 Gln; value in parentheses; synthetic substrate with label as P-1 amino acid
Excerpt: as §1
(§5) The construction of subtilisin mutants containing the substitution of the ionic amino acids Asp, Asn, Gln, Lys and Ang are disclosed in EPO Publication No. 0130756. The present example describes the construction of the mutant subtilisin containing Glu at position 166 (E166) and presents substrate specificity data on these mutants. Further data on position 166 and 156 single and double mutants is presented infra.
(§6) Each of these mutants was analyzed with the tetrapeptide substrates, succinyl-L-AlaL-AlaProL-X-p-nitroanilide, where X was Phe, Ala and Glu.

[7] = substrate: C[C@H](NC(=O)CCC(=O)O)C(=O)N[C@@H](C)C(=O)N1CCC[C@H]1C(=O)N[C@@H](CCC(=O)O)C(=O)Nc1ccc([N+](=O)[O-])cc1; assay: as above; details: other: Table XIV, 156 Glu / 166 Gln; value in parentheses; synthetic substrate with label as P-1 amino acid
Excerpt: as §1, §5, §6

[8] = substrate: CSCC[C@H](NC(=O)[C@@H]1CCCN1C(=O)[C@H](C)NC(=O)[C@H](C)NC(=O)CCC(=O)O)C(=O)Nc1ccc([N+](=O)[O-])cc1; assay: as above; details: other: Table XIV, 156 Glu / 166 Gln; value in parentheses; synthetic substrate with label as P-1 amino acid
Excerpt: as §1, §5, §6

[9] = substrate: C[C@H](NC(=O)CCC(=O)O)C(=O)N[C@@H](C)C(=O)N1CCC[C@H]1C(=O)N[C@@H](CCC(N)=O)C(=O)Nc1ccc([N+](=O)[O-])cc1; assay: as above; details: other: Table XIV, 156 Glu / 166 Gln; value in parentheses; synthetic substrate with label as P-1 amino acid
Excerpt: as §1, §5, §6

[10] = substrate: C[C@H](NC(=O)CCC(=O)O)C(=O)N[C@@H](C)C(=O)N1CCC[C@H]1C(=O)N[C@@H](CCCCN)C(=O)Nc1ccc([N+](=O)[O-])cc1; assay: Kinetics of p-nitroanilide substrate hydrolysis, E166; details: other: Table XIV, 156 Glu / 166 Glu; value in parentheses; synthetic substrate with label as P-1 amino acid
Excerpt: as §1, §5
(§7) pΔ166, described in Example 3, was digested with Sacl and Xmal. The double strand DNA cassette (underlined and overlined) of line 4 in Figure 13 contained the triplet GAA for the codon 166 to encode the replacement of Glu for Gly166. This mutant plasmid designated […] was propagated in BG2036 as described. This mutant subtilisin, together with the other mutants containing ionic substituent amino acids at residue 166, were isolated as described and further analyzed for variations in substrate specificity.
as §6

[11] = substrate: CSCC[C@H](NC(=O)[C@@H]1CCCN1C(=O)[C@H](C)NC(=O)[C@H](C)NC(=O)CCC(=O)O)C(=O)Nc1ccc([N+](=O)[O-])cc1; assay: as above; details: other: Table XIV, 156 Glu / 166 Glu; value in parentheses; synthetic substrate with label as P-1 amino acid
Excerpt: as §1, §5, §7, §6

[12] = substrate: C[C@H](NC(=O)CCC(=O)O)C(=O)N[C@@H](C)C(=O)N1CCC[C@H]1C(=O)N[C@@H](CCC(N)=O)C(=O)Nc1ccc([N+](=O)[O-])cc1; assay: as above; details: other: Table XIV, 156 Glu / 166 Glu; value in parentheses; synthetic substrate with label as P-1 amino acid
Excerpt: as §1, §5, §7, §6

[13] = other: Table XIII, S156/K166, synthetic substrate with label as P-1 residue

B1: B. amyloliquefaciens subtilisin variant S156/K166 (Bacillus amyloliquefaciens; E263S/G273K) (protein)
chain: AQSVPYGVSQIKAPALHSQGYTGSNVKVAVIDSGIDSSHPDLKVAGGASMVPSETNPFQDNNSHGTHVAGTVAALNNSIGVLGVAPSASLYAVKVLGADGSGQYSWIINGIEWAIANNMDVINMSLGGPSGSAALKAAVDKAVASGVVVVAAAGNSGTSGSSSTVKYPGKYPSVIAVGAVDSSNQRASFSSVGPELDVMAPGVSIQSTLPGNKYGAYNGTSMASPHVAGAAALILSKHPNWTNTQVRSSLENTTTKLGDSFYYGKGLINVQAAAQ
notes: at various amino acid residues within the mature form of the subtilisin molecule; made in house
[1]
  Km: 1450 µM
[2]
  Km: 18 µM
  kcat: 30.00 s-^1
  kcat/Km: 1.6e+06 M⁻¹ s⁻¹
[3]; [13]
  Km: 39 µM
  kcat: 0.60 s-^1
  kcat/Km: 16000 M⁻¹ s⁻¹
[3]; other: Table XIV, 156 Ser / 166 Lys, value in parentheses, synthetic substrate with label as P-1 amino acid
  Km: 39.8 µM
[4]
  Km: 12.6 µM
[5]
  Km: 115 µM

B2: B. amyloliquefaciens subtilisin variant Q166 (Gly166 to Gln) (Bacillus amyloliquefaciens; G273Q) (protein)
chain: B1 chain with S156E, K166Q
notes: at various amino acid residues within the mature form of the subtilisin molecule; made in house; host or cells: Bacillus subtilis BG2036
[6]
  Km: 708 µM
[7]
  Km: 7.59 mM
[8]
  Km: 43.7 µM
[9]
  Km: 229 µM

B3: B. amyloliquefaciens subtilisin variant E166 (Gly166 to Glu) (Bacillus amyloliquefaciens; G273E) (protein)
chain: B1 chain with S156E, K166E
notes: as for B2
[10]
  Km: 204 µM
[11]
  Km: 525 µM
[12]
  Km: 1230 µM

Source: EP0251446B1, “Non-human Carbonyl hydrolase mutants, DNA sequences and vectors encoding same and hosts transformed with said vectors” (GENENCOR INTERNATIONAL, INC., priority 1986, dated 1988)
